How the values were obtained:
pErbB1 in NCI-ADRr cells = test: ErbB1 phosphorylation dose response curves for ErbB ligands (ELISA); type: cell-based, human
Experimental: (§1) For stimulation of the cells, the cells are seeded in […] at 35,000 cells per well in 96 well tissue culture plates and incubated overnight in a humidified atmosphere of 5% CO2, 95% air and 37 degrees Celsius. Cells are then switched to serum free media: RPMI-1640 media (Gibco) supplemented with, 2 mM L-glutamine (Gibco) and units/mL Pen-Strep (Gibco). Starved cells are incubated in a humidified atmosphere of 5% CO2, 95% air and 37 degrees Celsius for 20-24 hours prior to stimulation.
(§2) Levels of protein phosphorylation in the stimulated cells are measured by ELISA. Capture antibodies against ErbB1 (R&D Systems, AF231), ErbB2 (R&D Systems, MAB1129), ErbB3 (R&D Systems, MAB3481) and AKT (Upstate, 05-591MG) are incubated in 384 well black flat-bottom polystyrene high-binding plates (Corning, Catalog #3708) overnight at room temperature. The ELISA plates are blocked with 2% bovine serum albumin (BSA) and phosphate buffered saline (PBS) for one hour then incubated with lysates diluted in 2% BSA, 0.1% Tween-20 and PBS for two hours at room temp. In between each incubation, the plates are washed three times with 0.05% Tween-20 in PBS. ELISAs for measuring phospho-ErbB1, -ErbB2 and -ErbB3 are incubated with phospho-tyrosine horseradish peroxidase (HRP) linked monoclonal antibody (R&D Systems, HAM1676) for two hours. ELISAs measuring phospho-AKT are incubated with primary serine 473 specific anti-phospho AKT mouse monoclonal antibody (Cell Signaling Technologies, Catalog #5102) for 2 hours, then incubated with Streptavidin-HRP (R&D Systems, Catalog # DY998,) for 30 minutes. All ELISAs are visualized with SuperSignal ELISA Pico Chemiluminescent Substrate (Pierce, Catalog #37069) and luminescent signal is measured using a luminometer.

ErbB1 (E1) = ErbB1 (E1) (Homo sapiens, UniProt P00533); test: ErbB computational model: BTC ligand binding rate parameters
Description: (§3) The ErbB receptor signaling network model consists of three receptors (ErbB1, ErbB2, ErbB3), a receptor phosphatase, phosphatidylinositol 3-kinase (PI3K, which binds the receptors) and components of the PI3K-AKT cascade (phosphatidylinositol bisphosphate, PIP2, phosphoinositide-dependent protein kinase, PDK1, PTEN deleted from chromosome 10, PTEN, serine, threonine protein kinase also known as protein kinase B, AKT, Protein phosphatase 2A, PP2A) (see Table 8 below).
(§4) Many of the reaction rate parameters are unknown in the cell system we studied and therefore had to be estimated (see Table 10 below). To avoid biasing the starting point, all parameters were set to default values (Aldridge, B. B. et al. (2006) Nat. Cell. Biol. 8:1195-1203). The number of parameters estimated was limited by performing the estimation in two stages: first the model was calibrated against the experimentally observed ErbB receptor phosphorylation data; second, the parameters sensitive to AKT phosphorylation were optimized against the experimental data. Estimated values were only accepted if the parameters were constrained under multiple parameter runs using a genetic algorithm with a population size of 50 and 25 generations (Mathworks, Mass.). […] The normalized sensitivities of each species were integrated over the two hour stimulation, and parameters with normalized, integrated sensitivities greater than an arbitrary threshold of 1000 are listed in Table 11 below. As mentioned above, ErbB4 phosphorylation was not included into the parameter estimation because the cell line studied had barely detectable ErbB4 (see Table 3 below). ErbB4 reactions are parameterized according to ErbB3 reactions.

pErbB3 in NCI-ADRr cells = test: ErbB3 phosphorylation dose response curves for ErbB ligands (ELISA); type: cell-based, human
Experimental: as §1, §2

pErbB2 in NCI-ADRr cells = test: ErbB2 phosphorylation dose response curves for ErbB ligands (ELISA); type: cell-based, human
Experimental: as §1, §2

pAKT in NCI-ADRr cells = test: AKT phosphorylation dose response curves for ErbB ligands (ELISA); type: cell-based, human
Experimental: as §1, §2

ErbB3 (E3) = ErbB3 (E3) (Homo sapiens, UniProt P21860); test: ErbB computational model: HRG ligand binding rate parameters
Description: as §3, §4

ErbB3 = ErbB3 (Homo sapiens, UniProt P21860); test: Ab #6 rate constants measured by Kinexa (inhibitor parameter values); type: binding
[1] = system: MALME3M xenograft tumor model; test: Xenograft efficacy study with Ab #6, MALME3M model; type: in vivo, mouse
Description: (§5) In this example, four xenograft tumor models were used to identify tumor cell lines that responded to treatment with the anti-ErbB3 antibody Ab #6. The four xenograft tumor models studied represent different indications: MALME3M (melanoma cancer line; ATCC No. HTB-64), ADRr (ovarian cancer cell line; NCI-60, cosmic sample ID No. 905987), ACHN (renal cancer cell line; ATCC No. CRL-1611) and DU145 (prostate cancer cell line; ATCC No. HTB-81).
(§6) In the xenograft tumor models, mice (nu/nu mice: 3-4 week old female mice, T-cell deficient; outbred; Albino background; from Charles River Labs, Wilmington, Mass.) are implanted in the right flank with 3.5×10^6-3×10^8 cells/mouse (depending on cell line) in 200 μl via subcutaneous injection. Mice are monitored for initial tumor growth. Tumor cells are allowed to grow for several days until the tumor volume is approximately 200 mm^3. The tumor volume is calculated as V=(π/6 (L×W^2). The mice are treated with the Ab #6 antibody at a dosage of 600 μg/injection every 3 days (qd3). Control mice are treated with phosphate buffered saline (PBS).
(§7) Tumor volume is measured for 60-80 days.
(§8) As a measure of responsiveness of the tumor to Ab #6, the exponential growth rate is determined, which described the experimental data best. The following formula is used to describe the exponential growth. […]

[2] = system: OVCAR8 xenograft tumor model; test: Xenograft study with Ab #6 (predicted set), OVCAR8; type: in vivo, mouse
Experimental: as §6
(§9) To test these model predictions, three additional in vivo xenograft studies were performed. The IGROV1, OVCAR8 and SKOV3 cell lines were used in xenograft studies conducted as described in Example 1, wherein mice were treated with 600 μg of Ab #6 every 3 days or with PBS as a control. The xenograft responses, as determined by changes in tumor volume (in mm^3) over time, are summarized in the graphs of FIGS. 9A-9C. Again, the Growth Rate Reduction (GRR) value for each cell line was calculated using the following formula:
(§10) Growth Rate Reduction=1−(Ab #6 Growth Rate)/(PBS Growth Rate)

[3] = system: DU145 xenograft tumor model; test: Xenograft efficacy study with Ab #6, DU145 model; type: in vivo, mouse
Description: as §5, §6, §7, §8

[4] = system: IGROV1 xenograft tumor model; test: Xenograft study with Ab #6 (predicted set), IGROV1; type: in vivo, mouse
Experimental: as §6, §9, §10

[5] = system: ACHN xenograft tumor model; test: Xenograft efficacy study with Ab #6, ACHN model; type: in vivo, mouse
Description: as §5, §6, §7, §8

[6] = system: SKOV3 xenograft tumor model; test: Xenograft study with Ab #6 (predicted set), SKOV3; type: in vivo, mouse
Experimental: as §6, §9, §10

[7] = system: ADRr xenograft tumor model; test: Xenograft efficacy study with Ab #6, ADRr model; type: in vivo, mouse
Description: as §5, §6, §7, §8

[8] = estimated using known Kds and initial dose response curves
[9] = Ab #6 600 μg/injection every 3 days vs PBS, negative GRR set to zero
[10] = 600 μg of Ab #6 every 3 days vs PBS
[11] = Ab #6 600 μg/injection every 3 days vs PBS

Molecule: BTC: ErbB ligand betacellulin, binds primarily to ErbB1
- EC50 (pErbB1 in NCI-ADRr cells): 5.7 nM
- forward binding rate (ErbB1 (E1); [8]): ~100000 M⁻¹ s⁻¹
- kf3: BTC binding to E1 (ErbB1 (E1); model parameter): 5.00 × 10^−11 molecules−1 sec−1
- kf4: BTC binding to E1 homodimers (ErbB1 (E1); model parameter): 5.00 × 10^−11 molecules−1 sec−1
- kf5: BTC binding to E1 heterodimers (ErbB1 (E1); model parameter): 5.00 × 10^−11 molecules−1 sec−1
- kr3: BTC dissociation from E1 (ErbB1 (E1); model parameter): 0.001 s⁻¹
- kf129: BTC binding in the endosome (ErbB1 (E1); model parameter, endosome): 3.8 molecules−1 sec−1
- EC50 (pErbB3 in NCI-ADRr cells): 100 nM

Molecule: TGFα: ErbB ligand, transforming growth factor alpha
- EC50 (pErbB1 in NCI-ADRr cells): 30 nM

Molecule: HRG1-β: ErbB ligand heregulin, binds to ErbB3 and ErbB4
- EC50 (pErbB2 in NCI-ADRr cells): 7 nM
- pErbB2 % stimulation at 5 min relative to maximum (pErbB2 in NCI-ADRr cells): 43.0%
- EC50 (pAKT in NCI-ADRr cells): 1.9 nM
- pAKT % stimulation at 5 min relative to maximum (pAKT in NCI-ADRr cells): 100.0%
- pErbB1 % stimulation at 5 min relative to maximum (pErbB1 in NCI-ADRr cells): 0.0%
- EC50 (pErbB3 in NCI-ADRr cells): 9.9 nM
- pErbB3 % stimulation at 5 min relative to maximum (pErbB3 in NCI-ADRr cells): 100.0%
- forward binding rate (ErbB3 (E3); [8]): ~100000 M⁻¹ s⁻¹
- kf2: HRG binding to E3:E2 dimers (ErbB3 (E3); model parameter): 5.00 × 10^−11 molecules−1 sec−1
- kr1: HRG dissociation from E3 (ErbB3 (E3); model parameter): 0.001 s⁻¹
- kr2: HRG dissociation from E3:E2 dimers (ErbB3 (E3); model parameter): 0.001 s⁻¹
- kf127: HRG binding in the endosome (ErbB3 (E3); model parameter, endosome): 3.8 molecules−1 sec−1
- kf1: HRG binding to E3 or E4 (ErbB3 (E3); model parameter, unit conversion from 1e5 M−1s−1/(Vmedia*Av/Num_cells)): 5.00 × 10^−11 molecules−1 sec−1

Molecule: HB-EGF: ErbB ligand, heparin-binding epidermal growth factor
- EC50 (pErbB2 in NCI-ADRr cells): 230 nM
- pErbB2 % stimulation at 5 min relative to maximum (pErbB2 in NCI-ADRr cells): 94.0%
- pAKT % stimulation at 5 min relative to maximum (pAKT in NCI-ADRr cells): 20.0%
- EC50 (pErbB1 in NCI-ADRr cells): 21 nM
- pErbB1 % stimulation at 5 min relative to maximum (pErbB1 in NCI-ADRr cells): 87.0%
- pErbB3 % stimulation at 5 min relative to maximum (pErbB3 in NCI-ADRr cells): 32.0%

Molecule: Epiregulin: ErbB ligand epiregulin
- pErbB2 % stimulation at 5 min relative to maximum (pErbB2 in NCI-ADRr cells): 18.0%
- pAKT % stimulation at 5 min relative to maximum (pAKT in NCI-ADRr cells): 11.0%
- pErbB1 % stimulation at 5 min relative to maximum (pErbB1 in NCI-ADRr cells): 9.0%

Molecule: AR: ErbB ligand amphiregulin
- pErbB2 % stimulation at 5 min relative to maximum (pErbB2 in NCI-ADRr cells): 54.0%
- pAKT % stimulation at 5 min relative to maximum (pAKT in NCI-ADRr cells): 28.0%
- EC50 (pErbB1 in NCI-ADRr cells): 37 nM
- pErbB1 % stimulation at 5 min relative to maximum (pErbB1 in NCI-ADRr cells): 95.0%
- EC50 (pErbB3 in NCI-ADRr cells): 380 nM
- pErbB3 % stimulation at 5 min relative to maximum (pErbB3 in NCI-ADRr cells): 17.0%

B1: Ab #6: anti-ErbB3 antibody described in WO 2008/100624, VH and VL sequences of SEQ ID NOs: 1 and 2 (antibody, V domains shown)
VH: EVQLLESGGGLVQPGGSLRLSCAASGFTFSHYVMAWVRQAPGKGLEWVSSISSSGGWTLYADSVKGRFTISRDNSKNTLYLQMNSLRAEDTAVYYCTRGLKMATIFDYWGQGTLVTVSS
VL: QSALTQPASVSGSPGQSITISCTGTSSDVGSYNVVSWYQQHPGKAPKLIIYEVSQRPSGVSNRFSGSKSGNTASLTISGLQTEDEADYYCCSYAGSSIFVIFGGGTKVTVL
- Ab #6 on-rate for binding to ErbB3 before unit conversion (ErbB3): calculated as 1.43e5 M^−1s^−1/(Vmedia*Av/Num_cells).
- kf Ab #6 _2: Ab #6 inhibitor binding to a second ErbB3 (ErbB3; avidity due to volume reduction (Vmedia/Numcells)/Vshell): 4.96E−05 molecules^−1 sec^−1
- kf Ab #6 _1: Ab #6 inhibitor binding to ErbB3 (ErbB3; unit conversion of on-rate/(Vmedia*Av/Num_cells), Num_cells = 30,000 per well): 7.15E−11 molecules^−1 sec^−1
- GRR [%] (Tumor Growth Rate Reduction) [1, 9]: 0%
- effect of antibody treatment on tumor growth ([1]; compared to PBS control): did not inhibit tumor growth
- experimentally observed responsiveness based on GRR value [2]: responders
- GRR [%] (Tumor Growth Rate Reduction) [2, 10]: 91.4%
- GRR [%] (Tumor Growth Rate Reduction) [3, 11]: 72.6%
- effect of antibody treatment on tumor growth ([3]; compared to PBS control): inhibited tumor growth
- experimentally observed responsiveness based on GRR value [4]: non-responder
- GRR [%] (Tumor Growth Rate Reduction) [4, 10]: 6.3%
- GRR [%] (Tumor Growth Rate Reduction) [5, 11]: 28.0%
- effect of antibody treatment on tumor growth ([5]; compared to PBS control): inhibited tumor growth
- experimentally observed responsiveness based on GRR value [6]: responders
- GRR [%] (Tumor Growth Rate Reduction) [6, 10]: 19.6%
- GRR [%] (Tumor Growth Rate Reduction) [7, 9]: 0%
- effect of antibody treatment on tumor growth ([7]; compared to PBS control): did not inhibit tumor growth

B2: Epigen: ErbB ligand epigen (protein, UniProt Q6UW88 23-154, looked up)
Epigen: AAVTVTPPITAQQGNWTVNKTEADNIEGPIALKFSHLCLEDHNSYCINGACAFHHELEKAICRCFTGYTGERCEHLTLTSYAVDSYEKYIAIGIGVGLLLSGFLVIFYCYIRKRCLKLKSPYNVCSGERRPL
- pErbB2 % stimulation at 5 min relative to maximum (pErbB2 in NCI-ADRr cells): 25.0%
- pAKT % stimulation at 5 min relative to maximum (pAKT in NCI-ADRr cells): 11.0%
- pErbB1 % stimulation at 5 min relative to maximum (pErbB1 in NCI-ADRr cells): 12.0%
- pErbB3 % stimulation at 5 min relative to maximum (pErbB3 in NCI-ADRr cells): 3.0%

— patent US20170307631A1, “METHODS, SYSTEMS AND PRODUCTS FOR PREDICTING RESPONSE OF TUMOR CELLS TO A THERAPEUTIC AGENT AND TREATING A PATIENT ACCORDING TO THE PREDICTED RESPONSE” (Merrimack Pharmaceuticals, Inc., priority 2008, published 2017)
